Experimental findings from the RNAGym collection of RNA variant scans (doi:10.1093/nar/gkz1192) are described below.

B1: CPEB3 Ribozyme (parent)
chain: UAACAGGGGGCCACAGCAGAAGCGUUCACGUCGCAGCCCCUGUCAGAUUCUGGUGAAUCUGCGAAUUCUGCUGUAUAUCUC

The variants in the series derive from B1. Nature of the series: self-cleavage, relative activity (ratio to wild type); higher = more cleavage; in vitro, sequencing. The procedure, abridged:
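After error-prone PCR and barcoding, CPEB3 ribozyme mutant libraries were transcribed with T7 RNA polymerase at 37°C for 5 hours, then given 15 min with DNase I before an EDTA stop, and they cleaved during both steps. Reverse transcription with template switching preceded Illumina sequencing. Relative activity divides a variant's cleaved/total read fraction by the unmutated ribozyme's. At least 5 reads were required per variant, and three batches were averaged.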
In the case of A65U U66C, the self-cleavage amounted to 0.38.

On to A18U U66C, for which the self-cleavage came out at 0.29.

Turning to U1A C38U, the self-cleavage came to 0.97.

With A2U A3G, the self-cleavage turned out to be 0.99.

Regarding G8A A77G, the self-cleavage is 0.23.

On to U60C A65U, for which the self-cleavage was determined as 0.27.

Regarding A65U C68A, the self-cleavage is 0.21.

As for U26C C32G, the self-cleavage came to 0.11.

With A3G C50U, the self-cleavage came to 0.94.

With A2U U31C, the self-cleavage was 0.81.

For A18C A75G, the self-cleavage is 0.41.

With A28C A77U, the self-cleavage amounted to 0.22.

For A18G C44U, the self-cleavage turned out to be 0.2.

On to A64G U80G, for which the self-cleavage was 0.67.

Regarding A13U C79A, the self-cleavage was found to be 1.28.

In the case of A65G A77U, the self-cleavage turned out to be 0.55.

As for G53U U67C, the self-cleavage was found to be 0.21.

On to C34G U51C, for which the self-cleavage came to 0.29.

As to A2G G8U, the self-cleavage was 0.11.

Take G42A A65C: the self-cleavage is 0.24.

On to U25A C32A, for which the self-cleavage was 0.16.

Turning to U26A U78C, the self-cleavage is 0.82.

As to A2C G9U, the self-cleavage turned out to be 0.21.

Turning to U60A U80C, the self-cleavage was 0.63.

Regarding A35C U80C, the self-cleavage amounted to 0.84.

For the variant A13U A77G, the self-cleavage was determined as 1.03.

With A3G G63C, the self-cleavage was found to be 1.06.

In the case of C34A U60C, the self-cleavage worked out at 0.14.

C11A U67C: the self-cleavage came out at 0.09.

U26C A56G: the self-cleavage turned out to be 0.38.

Regarding G24U U54C, the self-cleavage came out at 0.17.

As to G6A U78A, the self-cleavage came to 0.11.

Consider U31A A64G, for which the self-cleavage was 0.39.

As for A3U A57U, the self-cleavage was found to be 0.85.

Regarding U60A G70A, the self-cleavage worked out at 0.52.

As to U54C G61A, the self-cleavage worked out at 0.65.

As for U25A A45G, the self-cleavage was 0.27.

Take A3G C4G: the self-cleavage worked out at 1.15.

Turning to C11U C40U, the self-cleavage stood at 0.27.

Take A47G G55C: the self-cleavage was determined as 0.57.

With A64U A75U, the self-cleavage amounted to 0.45.

G10A U74G: the self-cleavage was 0.14.

Consider U1A A57G, for which the self-cleavage was 0.77.

For U31C U48A, the self-cleavage was found to be 0.39.

For U66C A77G, the self-cleavage turned out to be 0.4.

Turning to G30A U41G, the self-cleavage came out at 0.4.

Consider U48G U72C, for which the self-cleavage was determined as 0.44.

Turning to U43C C79A, the self-cleavage was found to be 0.8.

For A28C U31C, the self-cleavage was determined as 0.35.

Turning to G63A U69C, the self-cleavage was found to be 0.61.

Take U1C C11G: the self-cleavage turned out to be 0.43.

On to U1C C11U, for which the self-cleavage turned out to be 0.36.

On to A5C A15U, for which the self-cleavage is 0.99.

Regarding C4G U51C, the self-cleavage was 1.12.

For C27A A64G, the self-cleavage turned out to be 0.33.

Take G61U G70A: the self-cleavage came to 0.31.

Take C14U C32A: the self-cleavage was 0.2.

A5U G9A: the self-cleavage stood at 0.45.

Take A3G A35G: the self-cleavage came to 1.21.

For the variant G36U U80A, the self-cleavage turned out to be 0.29.

With G9U U48C, the self-cleavage is 0.29.

In the case of U31G A75G, the self-cleavage was 0.54.

As for G6A C34U, the self-cleavage was found to be 0.15.

For the variant U25G, the self-cleavage is 0.31.

Take G10A A77G: the self-cleavage worked out at 0.08.

On to A18C U80A, for which the self-cleavage amounted to 0.54.

With C29A G53U, the self-cleavage came out at 0.42.

For the variant U25A A28C, the self-cleavage is 0.39.

For A20G G52A, the self-cleavage came out at 0.9.

On to G7U G63A, for which the self-cleavage worked out at 0.33.

For the variant U49C A64G, the self-cleavage amounted to 0.27.

A47C C71U: the self-cleavage is 0.13.

Take C44U U80C: the self-cleavage came out at 0.29.

For C17A A18G, the self-cleavage came out at 0.48.

For G8A A65U, the self-cleavage turned out to be 0.06.

For U67G U78A, the self-cleavage is 0.67.

On to A21U G53A, for which the self-cleavage is 0.29.

In the case of C32A U72G, the self-cleavage stood at 0.19.

For the variant C68U U72G, the self-cleavage came out at 0.95.

For the variant A15U A18C, the self-cleavage was 0.35.

On to U26A A45U, for which the self-cleavage was 0.42.

In the case of U69C C81A, the self-cleavage amounted to 1.16.

With C27U A56G, the self-cleavage worked out at 0.52.

For G10C U58C, the self-cleavage was 0.19.

A64U U78A: the self-cleavage was found to be 0.49.

As for G6A A45U, the self-cleavage was 0.38.

G52A U72G: the self-cleavage was 0.94.

In the case of G7U U58C, the self-cleavage was determined as 0.2.

Regarding G9U U54A, the self-cleavage turned out to be 0.08.

In the case of A3U U72C, the self-cleavage amounted to 1.12.

In the case of G7C U25A, the self-cleavage was 0.27.

G52U G61C: the self-cleavage was found to be 0.22.

Turning to A18U U49C, the self-cleavage worked out at 0.22.

Turning to C62A A75G, the self-cleavage is 0.12.

Consider G16A G30C, for which the self-cleavage came out at 0.05.

Consider C44G U74C, for which the self-cleavage was determined as 1.02.

With G8U U76C, the self-cleavage was 0.13.

Consider A35U G70C, for which the self-cleavage worked out at 0.34.

A13G C38U: the self-cleavage was 0.83.

Take A5U A57G: the self-cleavage amounted to 0.97.

Turning to U54G C71A, the self-cleavage stood at 0.42.

Take A28U U78C: the self-cleavage is 0.73.

Consider G42A A57U, for which the self-cleavage stood at 0.18.

As for U51A U66A, the self-cleavage came out at 0.51.

In the case of C4U G52A, the self-cleavage stood at 1.26.

For the variant G16A U69C, the self-cleavage worked out at 0.16.

Turning to A57C C62U, the self-cleavage was 0.14.

As for A28U C38U, the self-cleavage was found to be 0.48.

A5G U25G: the self-cleavage was found to be 0.55.

For the variant G9A G10C, the self-cleavage amounted to 0.2.

As for G8A U31A, the self-cleavage is 0.18.

Take A21G G73A: the self-cleavage stood at 1.21.

G6A A65G: the self-cleavage is 0.16.

On to A21G G36C, for which the self-cleavage came out at 0.24.

U60G U72C: the self-cleavage worked out at 0.32.

For the variant C17G C32U, the self-cleavage is 0.27.

Consider U43C U66A, for which the self-cleavage was 0.24.

With G6U A13U, the self-cleavage stood at 0.18.

On to A15G G55A, for which the self-cleavage was found to be 0.66.

Regarding U54C C68A, the self-cleavage came out at 0.43.

Take G19A U49C: the self-cleavage was determined as 0.1.

In the case of A56G C59U, the self-cleavage is 0.52.

For A45G U80C, the self-cleavage was found to be 0.91.

For A5C A28U, the self-cleavage worked out at 1.12.

Regarding C38U U78C, the self-cleavage came out at 0.67.

Turning to G63A A75G, the self-cleavage is 0.49.

Consider A13G U74A, for which the self-cleavage turned out to be 1.28.

As to A3U U26A, the self-cleavage was 1.03.

On to C37A U78A, for which the self-cleavage worked out at 0.2.

As for U41C A75G, the self-cleavage came out at 1.09.

As to U41A G55C, the self-cleavage stood at 0.34.

As for A64U U76G, the self-cleavage worked out at 0.24.

Take A28G C38U: the self-cleavage came to 0.54.

Consider U1C A65G, for which the self-cleavage amounted to 0.42.

Take G33A U69G: the self-cleavage was 0.16.

Regarding A28G G33A, the self-cleavage stood at 0.22.

C23G C39U: the self-cleavage is 0.08.

For the variant G6A C81U, the self-cleavage worked out at 0.73.

Regarding U49A A56G, the self-cleavage is 0.59.

With C40U U54C, the self-cleavage worked out at 0.7.

On to G42U, for which the self-cleavage turned out to be 0.31.

Turning to U51A U60A, the self-cleavage came to 0.64.

On to G6A G30A, for which the self-cleavage was 0.19.

For the variant U41C C59U, the self-cleavage is 0.89.

As for U67C U69C, the self-cleavage came out at 0.32.

On to A28C U60A, for which the self-cleavage stood at 0.4.

In the case of A18U C40U, the self-cleavage was found to be 0.45.

Take A13G C14U: the self-cleavage amounted to 0.78.

Regarding U26A U58G, the self-cleavage was found to be 0.17.

Turning to A5C C68G, the self-cleavage is 0.23.

On to U26C C81U, for which the self-cleavage came out at 0.5.

For the variant G22C G53C, the self-cleavage is 0.07.

Turning to U43A G52A, the self-cleavage turned out to be 1.23.

As for C12G C27U, the self-cleavage came to 0.18.

Regarding U31G C34A, the self-cleavage amounted to 0.14.

For A18G, the self-cleavage is 0.71.

As for C14A A15G, the self-cleavage turned out to be 1.1.

With U74C U80A, the self-cleavage is 1.28.

As to C11U A35U, the self-cleavage was determined as 0.33.

On to G52A U58A, for which the self-cleavage stood at 0.5.

Take A28C U76C: the self-cleavage was found to be 0.53.

With A13U A47U, the self-cleavage amounted to 0.92.

For the variant A56G U76A, the self-cleavage was 1.07.

As to A56G U76C, the self-cleavage came to 0.85.

Regarding G55A A56U, the self-cleavage was 0.84.

Regarding G6A A21G, the self-cleavage was found to be 0.49.

As for U54C G63U, the self-cleavage was 1.13.
